Test results: article PMC3060121, “The Peroxisomal Targeting Signal 1 in sterol carrier protein 2 is autonomous and essential for receptor recognition” (BMC Biochemistry, 2011)
Each block holds one binder with its values, some of them ahead of it.

Assays:
[1] = target: T1, Gal4DB-mSCP2 (21-143), two-hybrid fusion (human, UniProt P22307-2 21-143); experiment: two-hybrid; GAL4 based, S. cerevisiae PCY2; Gal4AD-Pex5p(C) with Gal4DB-SCP2 variants; β-galactosidase activity (A420 per mg protein per min), mean of three measurements; conditions: partners not purified
T1 construct: sterol carrier protein 2, human, residues 21-143; numbers count on: preSCP2 of 143 residues; In pPC97 between SalI and NotI; source: yeast two-hybrid fusion (S. cerevisiae PCY2)
T1 sequence (looked up): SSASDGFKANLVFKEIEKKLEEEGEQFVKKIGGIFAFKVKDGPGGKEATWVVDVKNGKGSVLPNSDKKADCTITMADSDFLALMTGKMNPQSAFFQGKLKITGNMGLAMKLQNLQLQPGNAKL

[2] = target: T2, Gal4DB-preSCP2 (1-143), two-hybrid fusion (human, UniProt P22307-2 1-143); experiment: as above; conditions: partners not purified
T2 construct: sterol carrier protein 2, human, residues 1-143, printed length 143; numbers count on: preSCP2 of 143 residues; In pPC97 between SalI and NotI; source: yeast two-hybrid fusion (S. cerevisiae PCY2)
T2 sequence (looked up): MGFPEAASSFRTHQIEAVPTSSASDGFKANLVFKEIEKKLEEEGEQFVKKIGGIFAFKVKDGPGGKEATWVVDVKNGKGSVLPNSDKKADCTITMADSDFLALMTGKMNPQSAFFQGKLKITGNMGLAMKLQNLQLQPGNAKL

[3] = target: T3, human Pex5p(C) (residues 315-639) D624W (human, UniProt P50542 315-639, D624W, biotin (EZ-Link Sulfo-NHS-Biotinylation Kit, between 1 and 2 moles of biotin per mole) in the Octet RED96 assay only); experiment: BLI; Octet RED96; biotinylated Pex5p(C) immobilised on streptavidin sensors at 20 μg/mL; PBS, 1000 rpm; association 1800 s, dissociation 1800 s; local fits, 1:1 model; conditions: both partners purified
T3 construct: Made by QuikChange on the His6-GST Pex5p(C) plasmid; also called Pex5p(C) D624W

[4] = target: T4, human Pex5p(C) (residues 315-639) R608W (human, UniProt P50542 315-639, R608W, biotin (EZ-Link Sulfo-NHS-Biotinylation Kit, between 1 and 2 moles of biotin per mole) in the Octet RED96 assay only); experiment: as above; conditions: both partners purified
T4 construct: Made by QuikChange on the His6-GST Pex5p(C) plasmid; also called Pex5p(C) R608W

[5] = target: T5, human Pex5p(C) (residues 315-639) S600W, infantile Refsum disease mutant (human, UniProt P50542 315-639, S600W, biotin (EZ-Link Sulfo-NHS-Biotinylation Kit, between 1 and 2 moles of biotin per mole)); experiment: as above; conditions: both partners purified
T5 construct: also called Pex5p(C)S600W

[6] = target: T6, human Pex5p(C), cargo-binding domain of Pex5p (residues 315-639), wild-type (human, UniProt P50542 315-639, biotin (EZ-Link Sulfo-NHS-Biotinylation Kit, between 1 and 2 moles of biotin per mole) in the Octet RED96 assay only); experiment: as above; conditions: both partners purified
T6 construct: The His6-GST fusion is cleavable with TEV protease; also called Pex5p(C) WT; HsPex5p(C)

[7] = target: T3, human Pex5p(C) (residues 315-639) D624W; experiment: ITC; MicroCal VP-ITC; Pex5p(C) wild-type or mutant titrated with mSCP2 or the peptide PGNAKL; as described in ref 4; conditions: both partners purified
[8] = target: T4, human Pex5p(C) (residues 315-639) R608W; experiment: as above; conditions: both partners purified
[9] = target: T6, human Pex5p(C), cargo-binding domain of …; experiment: as above; conditions: both partners purified

- fold reduction of the two-hybrid interaction against wild-type Pex5p(C) [1]: 3 fold
- fold reduction of the two-hybrid interaction against wild-type Pex5p(C) [2]: 3 fold
B1: Gal4AD-Pex5p(C) (residues 315-639) R608W, two-hybrid fusion (domain or fragment)
chain: not shown
notes: also called Pex5p(C) R608W; source: yeast two-hybrid fusion (S. cerevisiae PCY2)

- koff [3]: 0.00015 s⁻¹
- kon [3]: 11000 M⁻¹ s⁻¹
- koff [4]: 7.3e-05 s⁻¹
- kon [4]: 7200 M⁻¹ s⁻¹
- koff [5]: 6e-05 s⁻¹
- kon [5]: 6500 M⁻¹ s⁻¹
- koff [6]: 5.5e-05 s⁻¹
- kon [6]: 23000 M⁻¹ s⁻¹
- Kd [7]: 45 ± 8 nM
- dH [7]: -13.3 kcal/mol
- stoichiometry N [7]: 0.41 ± 0.08
- Kd [8]: 179 ± 19 nM
- dH [8]: -17.1 kcal/mol
- stoichiometry N [8]: 0.61 ± 0.06
- Kd [9]: 95 ± 21 nM
- dH [9]: -10.4 kcal/mol
- stoichiometry N [9]: 0.93 ± 0.03
B2: mature sterol carrier protein 2, mSCP2 (21-143) (natural protein, human, UniProt P22307-2 21-143, looked up)
chain: T1 sequence (looked up)
notes: numbers count on: preSCP2 of 143 residues; The His6-GST fusion is cleavable with TEV protease

- Kd [7]: 763 nM
- dH [7]: -13.1 kcal/mol
- stoichiometry N [7]: 0.49 ± 0.01
- Kd [8]: 635 ± 25 nM
- dH [8]: -12.3 kcal/mol
- stoichiometry N [8]: 0.81 ± 0.01
- Kd [9]: 547 ± 6 nM
- dH [9]: -10.2 kcal/mol
- stoichiometry N [9]: 0.94 ± 0.02
B3: PTS1 hexapeptide PGNAKL derived from the C-terminus of SCP2 (peptide)
peptide: PGNAKL
notes: C-terminal six residues of sterol carrier protein 2, human; numbers count on: preSCP2 of 143 residues; Free C-terminal carboxylate (PGNAKL-CO2-) as printed in the background; also called PGNAKL-CO2-; source: synthetic peptide (Sigma-Aldrich, > 95% purity)

- koff [3]: 8.6e-05 s⁻¹
- kon [3]: 13000 M⁻¹ s⁻¹
- koff [4]: 5e-05 s⁻¹
- kon [4]: 9000 M⁻¹ s⁻¹
- koff [5]: 5.1e-05 s⁻¹
- kon [5]: 7300 M⁻¹ s⁻¹
- koff [6]: 7.9e-05 s⁻¹
- kon [6]: 35000 M⁻¹ s⁻¹
B4: sterol carrier protein 2 with presequence, preSCP2 (1-143) (natural protein, human, UniProt P22307-2 1-143, looked up)
chain: T2 sequence (looked up)
notes: numbers count on: preSCP2 of 143 residues; The His6-GST fusion is cleavable with TEV protease; also called full-length SCP2
